T1: TLR9 (Homo sapiens, UniProt Q9NR96)
T1 construct: expressed in transfected cells; host or cells: HEK293 cells stably expressing TLR^FP
T1 sequence (Q9NR96 26-1032): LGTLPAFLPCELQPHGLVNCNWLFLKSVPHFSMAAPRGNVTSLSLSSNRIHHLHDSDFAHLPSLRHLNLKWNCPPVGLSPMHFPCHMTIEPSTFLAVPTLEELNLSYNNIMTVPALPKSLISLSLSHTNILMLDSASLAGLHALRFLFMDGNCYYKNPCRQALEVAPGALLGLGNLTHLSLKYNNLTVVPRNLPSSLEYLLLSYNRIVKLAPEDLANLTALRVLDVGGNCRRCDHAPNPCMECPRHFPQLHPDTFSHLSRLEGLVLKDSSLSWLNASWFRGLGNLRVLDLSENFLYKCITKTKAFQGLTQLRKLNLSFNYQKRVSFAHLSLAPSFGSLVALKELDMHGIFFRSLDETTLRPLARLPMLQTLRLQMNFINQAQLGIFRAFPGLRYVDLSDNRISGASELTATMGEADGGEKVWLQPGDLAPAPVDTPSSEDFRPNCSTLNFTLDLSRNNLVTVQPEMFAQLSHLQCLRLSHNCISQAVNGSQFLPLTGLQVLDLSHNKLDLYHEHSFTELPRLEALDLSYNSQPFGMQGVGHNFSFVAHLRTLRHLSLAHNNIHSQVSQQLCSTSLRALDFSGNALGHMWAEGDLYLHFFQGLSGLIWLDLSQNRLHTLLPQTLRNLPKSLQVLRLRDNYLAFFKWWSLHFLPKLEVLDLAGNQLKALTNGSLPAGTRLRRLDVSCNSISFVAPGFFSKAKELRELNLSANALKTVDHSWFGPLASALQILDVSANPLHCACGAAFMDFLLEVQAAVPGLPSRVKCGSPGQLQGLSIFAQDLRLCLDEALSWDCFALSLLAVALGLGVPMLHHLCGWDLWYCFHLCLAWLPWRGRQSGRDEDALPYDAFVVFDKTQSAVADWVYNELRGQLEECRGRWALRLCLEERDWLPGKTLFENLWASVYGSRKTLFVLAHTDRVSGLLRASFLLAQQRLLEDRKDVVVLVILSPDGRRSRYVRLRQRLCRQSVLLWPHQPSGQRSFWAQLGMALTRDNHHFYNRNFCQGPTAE

T2: TLR9^YFP (Homo sapiens, UniProt Q9NR96)
T2 construct: expressed in transfected cells; host or cells: HEK cells stably expressing TLR9^YFP, used as cellular lysate
T2 sequence (Q9NR96 26-1032): T1 sequence (Q9NR96 26-1032)

B1: PorinB: the protein PorinB from Neisseria meningitidis (protein)
chain: DVTLYGTIKAGVETSRSVFHQNGQVTEVTTATGIVDLGSKIGFKGQEDLGNGLKAIWQVEQKASIAGTDSGWGNRQSFIGLKGGFGKLRVGRLNSVLKDTGDINPWDSKSDYLGVNKIAEPEARLISVRYDSPEFAGLSGSVQYALNDNAGRHNSESYHAGFNYKNGGFFVQYGGAYKRHHQVQEGLNIEKYQIHRLVSGYDNDALYASVAVQQQDAKLTDASNSHNSQTEVAATLAYRFGNVTPRVSYAHGFKGLVDDADIGNEYDQVVVGAEYDFSKRTSALVSAGWLQEGKGENKFVATAGGVGLRHKF

What was measured:
TLR2:Fc = molecular target: T3, TLR2:Fc (Homo sapiens, UniProt O60603); experiment: Cell-free ELISA: plated TLR2:Fc probed with biotinylated ligand; format: binding; details: FIG. 8B
T3 construct: a fusion protein consisting of the extracellular domain of TLR2 and the mouse Fc portion of immunoglobulin G, isotype 2a
T3 sequence (O60603 21-588 limits assumed, species assumed): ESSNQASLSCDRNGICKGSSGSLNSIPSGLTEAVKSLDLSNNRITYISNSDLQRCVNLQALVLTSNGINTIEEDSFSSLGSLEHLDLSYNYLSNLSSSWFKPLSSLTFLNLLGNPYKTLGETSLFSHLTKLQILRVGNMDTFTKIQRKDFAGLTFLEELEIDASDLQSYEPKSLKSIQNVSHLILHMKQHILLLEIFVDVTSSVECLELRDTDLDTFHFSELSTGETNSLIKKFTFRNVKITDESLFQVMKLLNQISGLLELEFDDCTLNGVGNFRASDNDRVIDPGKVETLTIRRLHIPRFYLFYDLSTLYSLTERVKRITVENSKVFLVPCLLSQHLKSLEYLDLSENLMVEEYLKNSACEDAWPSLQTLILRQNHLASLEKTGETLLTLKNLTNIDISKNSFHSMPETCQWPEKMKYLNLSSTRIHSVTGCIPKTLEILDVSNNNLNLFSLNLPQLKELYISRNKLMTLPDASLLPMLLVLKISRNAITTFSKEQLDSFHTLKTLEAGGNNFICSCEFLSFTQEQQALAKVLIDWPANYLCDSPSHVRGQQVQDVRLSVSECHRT
Experimental: (§1) Briefly, various TLR2 ligands were plated on plastic in carbonate buffer pH 9 for two hours at different concentrations (X axis) in duplicate points. After washing (PBS-0.05% Tween 20), a fusion protein consisting of the extracellular domain of TLR2 and the mouse Fc portion of immunoglobulin G, isotype 2a (TLR2:Fc, see U.S. Provisional Patent Application Ser. No. 60/598,774), was added at 1 mg/ml (0.1 mg/well).
(§2) In a similar setting, the TLR2:Fc fusion protein and the related TLR4:Fc, were plated on plastic and the biotinylated ligand used to probe the wells. The TLR2 bound biotinylated protein was reveled using a HRP conjugated anti biotin polyclonal antiserum (NEB).

TLR4:Fc = molecular target: T4, TLR4:Fc (Homo sapiens, UniProt O00206); experiment: Cell-free ELISA: plated TLR4:Fc probed with biotinylated ligand; format: binding; details: FIG. 8B
T4 construct: the TLR2:Fc fusion protein and the related TLR4:Fc, were plated on plastic
T4 sequence (O00206 24-631 limits assumed, species assumed): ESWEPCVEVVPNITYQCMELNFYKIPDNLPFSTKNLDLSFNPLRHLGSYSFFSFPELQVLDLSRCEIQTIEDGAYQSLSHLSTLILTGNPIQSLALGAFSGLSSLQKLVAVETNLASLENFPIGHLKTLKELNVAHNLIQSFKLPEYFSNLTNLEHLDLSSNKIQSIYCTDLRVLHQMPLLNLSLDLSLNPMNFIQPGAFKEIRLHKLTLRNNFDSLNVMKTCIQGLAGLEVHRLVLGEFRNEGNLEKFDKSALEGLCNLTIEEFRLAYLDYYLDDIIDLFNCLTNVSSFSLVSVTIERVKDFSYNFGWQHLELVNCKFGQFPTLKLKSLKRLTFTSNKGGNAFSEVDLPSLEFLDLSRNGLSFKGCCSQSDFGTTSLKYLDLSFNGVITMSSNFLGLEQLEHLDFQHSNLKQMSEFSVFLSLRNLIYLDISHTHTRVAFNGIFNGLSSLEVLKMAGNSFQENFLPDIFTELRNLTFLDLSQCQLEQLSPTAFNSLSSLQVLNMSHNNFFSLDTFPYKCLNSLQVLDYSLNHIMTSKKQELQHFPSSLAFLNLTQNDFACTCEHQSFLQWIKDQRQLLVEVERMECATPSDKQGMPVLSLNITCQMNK
Experimental: as §1, §2

TLR9 = molecular target: T1, TLR9; experiment: TLR9 signaling in TLR9-expressing HEK cells; format: cell-based
Experimental: Cellular activation was assessed by NF-κB-luciferase reporter assay. Briefly, HEK293 cells that stably express a TLR^FP or empty vector (pcDNA) were seeded into 96-well tissue culture plates at a density of 2×10^4 cells/well. The following day, cells were transiently transfected with luciferase reporter genes using Genejuice (Novagen) per the manufacturer's recommendations. In order to assess NF-κB activation, an NF-κB-luciferase reporter gene consisting of an artificial promoter composed of a multimer of five NF-κB sites driving the firefly luciferase gene, was co-transfected with a constitutively active Renilla-luciferase reporter gene (Promega, Madison, Wis.).

TLR9^YFP = molecular target: T2, TLR9^YFP; experiment: Competition plate assay: TLR9^YFP binding to plate-bound biotinylated CpG-DNA 2006 in presence of competitor; details: plates coated with 0.3 μM biotin-CpG-DNA 2006; competitor added to TLR9^YFP lysate; FIGS. 5A-D
Excerpt: This assay can be adapted for use in drug-screening applications. For example, the interaction of TLR9 with CpG-DNA reflects a clinically important receptor/ligand interaction since a variety of autoimmune diseases are thought to be based on the interaction of DNA-antibody complexes with this receptor (Leadbetter et al., 2002, Nature 416:603-607). Thus, antagonists for this interaction are useful for the development of novel anti-inflammatory drugs. To examine the application of this assay to the identification of such compounds (e.g., compounds that increase or decrease the interaction) and so are potential drugs for ameliorating TLR-related disorders, a competition assay was developed that was based on the basic plate assay described above. The competition assay was performed essentially as described above for the plate assay. In addition, non-biotinylated CpG-DNA (“cold ligand”) or other compounds that interfere with TLR9 signaling (R848 or bacterial DNA) were added to the TLR9-containing lysates. The ability of the various compounds to inhibit binding of TLR9^YFP to the plate-bound biotinylated CpG-DNA was then evaluated.
In the assay, NeutrAvidin™ plates (Pierce) were coated with 0.3 μM biotin-CpG-DNA 2006 as described above. […]

TLR2 = molecular target: T5, TLR2 (Homo sapiens, UniProt O60603); experiment: NF-κB luciferase reporter assay in 293 cells stably expressing TLR2; format: cell-based; details: 0.01-10 μg/ml stimulant; FIG. 7B
T5 construct: expressed in transfected cells; host or cells: 293 (HEK 293) cells stably expressing TLR2
T5 sequence (O60603 21-784, species assumed): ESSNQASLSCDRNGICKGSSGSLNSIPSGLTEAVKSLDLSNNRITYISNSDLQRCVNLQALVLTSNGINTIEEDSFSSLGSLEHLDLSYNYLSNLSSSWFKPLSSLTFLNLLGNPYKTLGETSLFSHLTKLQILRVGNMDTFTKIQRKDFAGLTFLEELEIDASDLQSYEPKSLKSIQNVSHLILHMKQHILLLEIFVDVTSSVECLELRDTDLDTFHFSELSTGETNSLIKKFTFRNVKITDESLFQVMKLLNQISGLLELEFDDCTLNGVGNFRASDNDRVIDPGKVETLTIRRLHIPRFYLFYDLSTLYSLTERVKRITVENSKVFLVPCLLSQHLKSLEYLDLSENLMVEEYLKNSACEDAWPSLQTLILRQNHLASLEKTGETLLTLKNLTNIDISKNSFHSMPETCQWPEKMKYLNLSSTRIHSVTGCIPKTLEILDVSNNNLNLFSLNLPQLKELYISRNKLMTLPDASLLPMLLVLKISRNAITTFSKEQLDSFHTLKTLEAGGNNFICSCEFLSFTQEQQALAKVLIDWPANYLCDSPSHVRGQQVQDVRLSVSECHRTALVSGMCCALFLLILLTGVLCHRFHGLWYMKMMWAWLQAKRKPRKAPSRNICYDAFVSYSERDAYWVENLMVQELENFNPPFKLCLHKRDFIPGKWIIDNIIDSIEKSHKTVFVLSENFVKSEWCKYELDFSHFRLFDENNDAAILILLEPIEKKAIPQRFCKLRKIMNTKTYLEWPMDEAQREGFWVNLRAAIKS
T5 sequence (Q15399 25-786 partner, species assumed): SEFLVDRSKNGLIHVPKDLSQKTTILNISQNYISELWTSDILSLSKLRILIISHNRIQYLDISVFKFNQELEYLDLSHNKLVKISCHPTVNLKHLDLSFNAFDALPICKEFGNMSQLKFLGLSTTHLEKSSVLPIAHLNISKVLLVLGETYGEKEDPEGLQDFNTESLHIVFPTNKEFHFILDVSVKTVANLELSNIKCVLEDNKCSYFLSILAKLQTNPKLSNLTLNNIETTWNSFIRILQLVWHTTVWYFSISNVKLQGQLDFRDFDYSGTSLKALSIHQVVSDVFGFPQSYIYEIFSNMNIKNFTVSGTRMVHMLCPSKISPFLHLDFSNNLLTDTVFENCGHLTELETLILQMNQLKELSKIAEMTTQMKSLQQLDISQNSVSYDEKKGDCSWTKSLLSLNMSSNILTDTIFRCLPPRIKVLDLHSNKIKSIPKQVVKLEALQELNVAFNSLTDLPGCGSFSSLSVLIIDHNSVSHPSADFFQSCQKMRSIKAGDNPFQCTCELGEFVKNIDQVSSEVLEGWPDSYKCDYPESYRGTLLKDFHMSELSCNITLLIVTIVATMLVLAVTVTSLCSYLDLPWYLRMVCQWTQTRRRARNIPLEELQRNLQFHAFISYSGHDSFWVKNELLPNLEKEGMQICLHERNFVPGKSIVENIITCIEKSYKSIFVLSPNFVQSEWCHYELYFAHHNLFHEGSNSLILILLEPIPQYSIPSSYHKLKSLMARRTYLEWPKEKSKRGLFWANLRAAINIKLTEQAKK
Experimental: 293 cells stably expressing TLR4/MD-2 (as described in Visintin et al., 2003, J. Biol. Chem., 278(48):48313-48320) or TLR2 were stimulated using lipopolysaccharide (LPS) or PorinB, and the extent of activation measured as the activation of a NF-κB-dependent reporter gene encoding for the Luciferase gene. To measure NF-κB activation, 2 μg of a reporter plasmid in which NF-κB drives the synthesis of luciferase was transiently cotransfected with 5 μg of the indicated cDNA by lipofection (GeneJuice) in 10-cm tissue culture dishes following the manufacturer's recommendations. The following morning, cells were seeded at a density of 50,000 cells/well in a 96-well plate, allowed to recover for 5 hours, and stimulated as indicated between 6 and 18 hours. Luciferase activity was measured with a plate reader luminometer (Victor^2, PerkinElmer Life Sciences) using chemicals provided with the luciferase assay system (Promega, Madison, Wis.). All data are presented as the means ±S.D. of triplicate well readings, normalized to a value of 1.0 in comparison with an unstimulated negative control.

| Molecule | Binding of biotinylated ligand to plated TLR2:Fc (TLR2:Fc) | Binding of biotinylated ligand to plated TLR4:Fc (TLR4:Fc) | Inhibition of TLR9 signaling (TLR9) | Inhibition of TLR9 binding to biotinylated immobilized CpG-DNA (TLR9^YFP) | NF-κB reporter activation in TLR2 expressing cells (TLR2) |
| --- | --- | --- | --- | --- | --- |
| bacterial alkaline phosphatase (BAP): bacterial alkaline phosphatase | bind to TLR2:Fc | not to TLR4:Fc | – | – | – |
| CCOCc1nc2c(N)nc3ccccc3c2n1CC(C)(C)O [R848] | – | – | inhibited TLR9 signaling in a dose dependent manner | did not interfere with the binding of TLR9 to CpG-DNA | – |
| B1 | specifically bound | did not | – | – | efficiently activates |

Reference: patent US8124349B2, “Toll-like receptor assays” (University of Massachusetts, priority 2003, dated 2012)
